# Reference: article PMC3510486, “The structural basis for the interaction between the CAF1 nuclease and the NOT1 scaffold of the human CCR4–NOT deadenylase complex” (Nucleic Acids Research, 2012)
# B1: MIF4G domain of Hs NOT1 (residues 1093-1317), purified for crystallization (domain or fragment, human, UniProt A5YKK6-1 1093-1317, looked up)
# chain: ENIQEKIAFIFNNLSQSNMTQKVEELKETVKEEFMPWVSQYLVMKRVSIEPNFHSLYSNFLDTLKNPEFNKMVLNETYRNIKVLLTSDKAAANFSDRSLLKNLGHWLGMITLAKNKPILHTDLDVKSLLLEAYVKGQQELLYVVPFVAKVLESSIRSVVFRPPNPWTMAIMNVLAELHQEHDLKLNLKFEIEVLCKNLALDINELKPGNLLKDKDRLKNLDEQLS
# notes: His6 fusion is PreScission-cleavable; also called NOT1 MIF4G domain; source: E. coli BL21 Codon Plus RIL, purified (Ni Sepharose IMAC, gel filtration)
# Target: T1, Hs CAF1, purified for crystallization (human, UniProt Q9UIV1-1 1-285)
# T1 construct: human CAF1 (CNOT7); model holds residues Q10-S266 and G274-E280 (chain B); residues up to E280 are seen in the map, so it is probably the whole protein; also called CNOT7; source: E. coli Rosetta2, purified (GSTrap, PreScission cleavage, gel filtration)
# T1 sequence (Q9UIV1 whole entry, the tested form may be a part): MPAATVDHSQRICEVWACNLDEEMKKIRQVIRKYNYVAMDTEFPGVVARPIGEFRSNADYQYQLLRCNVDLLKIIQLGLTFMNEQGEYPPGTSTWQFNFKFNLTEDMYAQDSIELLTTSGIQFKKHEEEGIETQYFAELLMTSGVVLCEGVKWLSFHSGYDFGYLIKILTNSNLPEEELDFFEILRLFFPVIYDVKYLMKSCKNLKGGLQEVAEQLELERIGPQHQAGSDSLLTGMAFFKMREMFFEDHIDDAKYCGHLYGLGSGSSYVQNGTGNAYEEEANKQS
# Assay: crystal structure; complex of purified NOT1 MIF4G and CAF1 (1.2:1) isolated by gel filtration; hanging drop, 4°C, 0.1 M Tris-HCl pH 8.2, 16% PEG 8000, 0.2 M MgCl2, 0.2 M ammonium sulfate; 2.70 Å
# Conditions: both partners purified
binder,measurement,value
B1,binding result,binds
